Among the data in US6074842 are 32P incorporation and shift in SDS-PAGE from 62-kDa to 65/67-kDa in isoproterenol-stimulated rat adipocytes values, retold here.

This experiment addresses rat perilipin A (62-kDa phosphoprotein of unstimulated rat adipocytes; 65/67-kDa forms after stimulation) (rat). As to conditions: scale: ratio to 1.

In the case of cAMP-dependent protein kinase (enzyme), the 32P incorporation and shift in SDS-PAGE from 62-kDa to 65/67-kDa in isoproterenol-stimulated rat adipocytes amounted to 5.
